How the values were obtained:
[1] = target: T1, LIMYB (L10-[…] MYB DOMAIN-CONTAINING PROTEIN) (Arabidopsis thaliana, UniProt Q9FFJ8 1-449); test: EMSA
T1 sequence: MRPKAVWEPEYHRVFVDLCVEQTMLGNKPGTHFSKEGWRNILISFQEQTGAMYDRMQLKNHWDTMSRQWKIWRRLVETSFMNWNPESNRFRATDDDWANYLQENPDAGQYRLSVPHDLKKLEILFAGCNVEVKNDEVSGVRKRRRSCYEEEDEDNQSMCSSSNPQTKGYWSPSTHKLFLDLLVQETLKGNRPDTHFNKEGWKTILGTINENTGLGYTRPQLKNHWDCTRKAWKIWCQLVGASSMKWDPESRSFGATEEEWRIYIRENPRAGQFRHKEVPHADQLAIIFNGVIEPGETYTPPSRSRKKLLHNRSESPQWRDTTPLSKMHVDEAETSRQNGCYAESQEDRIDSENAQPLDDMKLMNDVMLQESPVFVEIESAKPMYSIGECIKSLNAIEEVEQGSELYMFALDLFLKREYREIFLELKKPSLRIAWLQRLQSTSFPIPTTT

[2] = target: T1, LIMYB (L10-[…] MYB DOMAIN-CONTAINING …); test: competition

B1: RPL18 promoter 26-bp CAAAAC fragment (dsDNA)
DNA 1: GATGGAGGAAGCAAAACATTGACCAT
DNA 2: ATGGTCAATGTTTTGCTTCCTCCATC
binding result [1]: binds

B2: RPL18 26-bp mutant competitor (CAAAAC to ATCGTG) (dsDNA)
DNA 1: GATGGAGGAAGATCGTGATTGACCAT
DNA 2: ATGGTCAATCACGATCTTCCTCCATC
binding result [2]: no binding

From paper PMC12075613
